Source: article PMC10715212

Molecular target: Strep-tag II-tagged VgrG spike protein of EAEC T6SS-1 (enteroaggregative Escherichia coli (EAEC) 17-2)
Assay: cryo-EM structure; single particle cryo-EM of the co-produced, double-affinity and SEC purified PAAR^FL-^SVgrG-Tle1^H complex; AlphaFold2 model plus PDB 6SJL docked into the maps

Substance “Strep-tag II-tagged VgrG spike protein of EAEC T6SS-1 (natural protein)” has a stoichiometry N of 3.
